Assay results taken from patent US20250257143A1 (FORTE SUBSIDIARY, published 2025).
One block for each binder: values may come before it.

Columns and labels:
[1] = target: T1, huCD122-HIS (ARCO Bio | Cat No. CD2-H5221) (human, UniProt P14784 27-239); experiment: BLI Octet, antibody captured on AHC sensor, huCD122-His analyte, 1:1 fit
T1 construct: Bought analyte of the BLI assay; also called human CD122; not shown: His tag
T1 sequence (looked up): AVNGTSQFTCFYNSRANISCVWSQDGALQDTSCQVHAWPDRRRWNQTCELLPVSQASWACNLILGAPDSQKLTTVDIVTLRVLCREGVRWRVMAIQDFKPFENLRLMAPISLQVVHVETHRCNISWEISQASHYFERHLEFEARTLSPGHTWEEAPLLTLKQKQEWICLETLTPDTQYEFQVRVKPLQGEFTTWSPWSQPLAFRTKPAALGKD
Experimental: (§1) Based on Bio-Layer Interferometry (BLI), the Octet® BLI system is a fluidics-free instrument platform that enables real-time, label-free analysis for the determination of kinetics, affinity and antibody/protein quantitation. Binding experiments were performed on Octet HTX at 25° C. The analyte used was huCD122-HIS (ARCO Bio | Cat No. CD2-H5221) at a molecular weight of 25.4 kDa. The antibodies were loaded onto Anti-human Fc capture (AHC) sensors. The loaded sensors were dipped into serial dilutions of huCD122-His (Starting at 20 nM, 1:3 dilution, 4 points). Reference sample well (buffer) was used for data analysis. Kinetic constants were calculated using a monovalent (1:1) binding model. The assay buffer used was PBS with 0.1% BSA, […], pH 7.2. The regeneration buffer used was 10 mM Glycine buffer (pH 1.7). The four concentrations of huCD122-His used to determine anti-CD122 antibody binding and dissociation properties were 0.0 nM, 2.2 nM, 6.7 nM, and 20 nM. Sensorgram plots to display antibody binding characteristics were generated. The mouse parental chimera configurations in both IgG1 and IgG4 backbones (M5 IgG1 parental and M5 IgG4 parental) were tested as well as each combination of the humanized 3 HC and 3 LC variants in either an IgG1 or an IgG4 backbone.

[2] = target: T1, huCD122-HIS (ARCO Bio | Cat No. …); experiment: BLI Octet, antibody captured on AHC sensor, huCD122-His analyte, 1:1 fit; second batch
Experimental: as §1

[3] = target: T1, huCD122-HIS (ARCO Bio | Cat No. …); experiment: BLI Octet; reference: parental chimeras (G1, G11)
Experimental: as §1

B1: G1 (antibody)
heavy: not shown
light: DIQMTQTTSSLSASLGDRVTINCRASQDISNFLNWYQQKPDGTLKLLIYYTSGLHSGVPSRFSGSGSGTDYSLTISNLEEEDIATYFCQQDNNHPYTFGSGTKLEIKRTVAAPSVFIFPPSDEQLKSGTASVVCLLNNFYPREAKVQWKVDNALQSGNSQESVTEQDSKDSTYSLSSTLTLSKADYEKHKVYACEVTHQGLSSPVTKSFNRGEC
notes: Chimeric: mouse parental variable domains in human IgG1 (G1M17 allotype), kappa; also called M5 IgG1 parental; G1 mouse parental IgG1 chimera
Kd [1]: 727 pM | Response [1]: 0.381 | koff [1]: 0.0004 s⁻¹ | kon [1]: 549000 M⁻¹ s⁻¹

B3: G15 (antibody, human IgG4 S228P, kappa)
heavy: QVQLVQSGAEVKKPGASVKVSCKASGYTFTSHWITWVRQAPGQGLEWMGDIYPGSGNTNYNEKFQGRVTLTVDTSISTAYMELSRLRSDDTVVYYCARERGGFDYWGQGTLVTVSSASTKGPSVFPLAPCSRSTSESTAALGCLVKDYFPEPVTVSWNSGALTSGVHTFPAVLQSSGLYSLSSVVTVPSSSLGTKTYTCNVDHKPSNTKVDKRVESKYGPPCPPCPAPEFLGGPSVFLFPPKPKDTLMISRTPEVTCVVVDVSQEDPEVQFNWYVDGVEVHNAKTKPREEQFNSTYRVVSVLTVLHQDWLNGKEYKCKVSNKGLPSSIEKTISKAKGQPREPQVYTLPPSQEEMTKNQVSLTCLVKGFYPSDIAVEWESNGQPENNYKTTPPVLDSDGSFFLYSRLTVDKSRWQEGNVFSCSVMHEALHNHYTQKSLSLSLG
light: DIQMTQSPSSLSASVGDRVTITCRASQDISNFLNWYQQKPEGTLKLLIYYTSGLHSGVPSRFSGSGSGTDFTLTISSLQPEDVATYYCQQDNNHPYTFGQGTKLEIKRTVAAPSVFIFPPSDEQLKSGTASVVCLLNNFYPREAKVQWKVDNALQSGNSQESVTEQDSKDSTYSLSSTLTLSKADYEKHKVYACEVTHQGLSSPVTKSFNRGEC
notes: Humanized, human IgG4 (S228P), kappa
fold change in KD against the parental chimera [3]: < 3 fold | Kd [1]: 1370 pM | Response [1]: 0.337 | koff [1]: 0.000639 s⁻¹ | kon [1]: 466000 M⁻¹ s⁻¹ | Kd [2]: 1330 pM | Response [2]: 0.312 | koff [2]: 0.000647 s⁻¹ | kon [2]: 485000 M⁻¹ s⁻¹

B4: G5 (antibody, human IgG1, kappa)
heavy: not shown
light: DIQMTQSPSSLSASVGDRVTITCRASQDISNFLNWYQQKPEGTLKLLIYYTSGLHSGVPSRFSGSGSGTDFTLTISSLQPEDVATYYCQQDNNHPYTFGQGTKLEIKRTVAAPSVFIFPPSDEQLKSGTASVVCLLNNFYPREAKVQWKVDNALQSGNSQESVTEQDSKDSTYSLSSTLTLSKADYEKHKVYACEVTHQGLSSPVTKSFNRGEC
notes: Humanized, human IgG1 (G1M17), kappa
fold change in KD against the parental chimera [3]: < 3 fold | Kd [1]: 1180 pM | Response [1]: 0.377 | koff [1]: 0.000581 s⁻¹ | kon [1]: 494000 M⁻¹ s⁻¹

The remaining lines, values ahead:

Kd [1]: 795 pM | Response [1]: 0.326 | koff [1]: 0.000423 s⁻¹ | kon [1]: 532000 M⁻¹ s⁻¹ | Kd [2]: 866 pM | Response [2]: 0.327 | koff [2]: 0.000491 s⁻¹ | kon [2]: 567000 M⁻¹ s⁻¹
B2: G11 (antibody, human IgG4 S228P, kappa)
heavy: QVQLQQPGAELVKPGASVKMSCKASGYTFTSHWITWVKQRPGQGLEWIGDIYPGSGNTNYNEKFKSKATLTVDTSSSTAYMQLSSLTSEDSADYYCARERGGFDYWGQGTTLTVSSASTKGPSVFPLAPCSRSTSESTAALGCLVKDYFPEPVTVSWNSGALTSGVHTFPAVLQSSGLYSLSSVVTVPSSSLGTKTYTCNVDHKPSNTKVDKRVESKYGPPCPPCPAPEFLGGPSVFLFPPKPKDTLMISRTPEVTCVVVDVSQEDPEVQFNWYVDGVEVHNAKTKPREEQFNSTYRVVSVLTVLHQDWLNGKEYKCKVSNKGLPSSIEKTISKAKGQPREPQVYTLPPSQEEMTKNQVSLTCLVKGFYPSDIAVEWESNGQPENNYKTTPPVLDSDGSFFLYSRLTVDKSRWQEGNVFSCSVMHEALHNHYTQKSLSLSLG
light: DIQMTQTTSSLSASLGDRVTINCRASQDISNFLNWYQQKPDGTLKLLIYYTSGLHSGVPSRFSGSGSGTDYSLTISNLEEEDIATYFCQQDNNHPYTFGSGTKLEIKRTVAAPSVFIFPPSDEQLKSGTASVVCLLNNFYPREAKVQWKVDNALQSGNSQESVTEQDSKDSTYSLSSTLTLSKADYEKHKVYACEVTHQGLSSPVTKSFNRGEC
notes: Chimeric: mouse parental variable domains in human IgG4 (S228P), kappa; also called M5 IgG4 parental; G11 mouse parental IgG4 chimera

fold change in KD against the parental chimera [3]: < 3 fold | Kd [1]: 1080 pM | Response [1]: 0.354 | koff [1]: 0.000488 s⁻¹ | kon [1]: 451000 M⁻¹ s⁻¹ | Kd [2]: 1430 pM | Response [2]: 0.334 | koff [2]: 0.000646 s⁻¹ | kon [2]: 452000 M⁻¹ s⁻¹
B5: G12 (antibody, human IgG4 S228P, kappa)
heavy: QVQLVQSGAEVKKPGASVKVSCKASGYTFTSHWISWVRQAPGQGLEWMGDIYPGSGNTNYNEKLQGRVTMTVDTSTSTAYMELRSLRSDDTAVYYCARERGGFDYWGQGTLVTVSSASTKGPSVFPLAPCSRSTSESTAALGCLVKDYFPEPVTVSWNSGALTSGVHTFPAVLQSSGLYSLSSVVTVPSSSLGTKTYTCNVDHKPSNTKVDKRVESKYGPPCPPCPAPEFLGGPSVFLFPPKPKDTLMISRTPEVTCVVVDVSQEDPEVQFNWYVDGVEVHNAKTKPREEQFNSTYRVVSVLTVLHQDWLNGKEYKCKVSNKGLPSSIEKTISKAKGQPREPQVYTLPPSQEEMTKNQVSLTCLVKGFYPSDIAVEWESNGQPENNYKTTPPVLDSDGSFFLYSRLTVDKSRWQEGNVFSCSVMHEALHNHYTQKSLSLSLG
light: DIQMTQSPSSLSASVGDRVTITCRASQDISNFLNWYQQKPEGTLKLLIYYTSGLHSGVPSRFSGSGSGTDFTLTISSLQPEDVATYYCQQDNNHPYTFGQGTKLEIKRTVAAPSVFIFPPSDEQLKSGTASVVCLLNNFYPREAKVQWKVDNALQSGNSQESVTEQDSKDSTYSLSSTLTLSKADYEKHKVYACEVTHQGLSSPVTKSFNRGEC
notes: as for B3

fold change in KD against the parental chimera [3]: < 3 fold | Kd [1]: 980 pM | Response [1]: 0.315 | koff [1]: 0.000453 s⁻¹ | kon [1]: 462000 M⁻¹ s⁻¹
B6: G18 (antibody, human IgG4 S228P, kappa)
heavy: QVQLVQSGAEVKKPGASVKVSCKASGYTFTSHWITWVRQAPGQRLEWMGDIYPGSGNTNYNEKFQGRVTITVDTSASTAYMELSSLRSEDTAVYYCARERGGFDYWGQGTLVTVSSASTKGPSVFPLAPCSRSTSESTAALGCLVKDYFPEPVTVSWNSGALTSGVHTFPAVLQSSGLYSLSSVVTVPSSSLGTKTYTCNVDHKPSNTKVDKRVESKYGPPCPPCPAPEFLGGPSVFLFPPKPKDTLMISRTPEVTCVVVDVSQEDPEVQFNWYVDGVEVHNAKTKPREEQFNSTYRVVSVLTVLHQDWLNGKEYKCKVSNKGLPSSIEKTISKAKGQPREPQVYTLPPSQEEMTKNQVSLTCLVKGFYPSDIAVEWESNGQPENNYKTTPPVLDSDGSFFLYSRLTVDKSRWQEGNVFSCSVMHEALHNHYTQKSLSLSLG
light: DIQMTQSPSSLSASVGDRVTITCRASQDISNFLNWYQQKPEGTLKLLIYYTSGLHSGVPSRFSGSGSGTDFTLTISSLQPEDVATYYCQQDNNHPYTFGQGTKLEIKRTVAAPSVFIFPPSDEQLKSGTASVVCLLNNFYPREAKVQWKVDNALQSGNSQESVTEQDSKDSTYSLSSTLTLSKADYEKHKVYACEVTHQGLSSPVTKSFNRGEC
notes: as for B3

fold change in KD against the parental chimera [3]: < 3 fold | Kd [1]: 831 pM | Response [1]: 0.372 | koff [1]: 0.000409 s⁻¹ | kon [1]: 492000 M⁻¹ s⁻¹
B7: G2 (antibody, human IgG1, kappa)
heavy: not shown
light: DIQMTQSPSSLSASVGDRVTITCRASQDISNFLNWYQQKPEGTLKLLIYYTSGLHSGVPSRFSGSGSGTDFTLTISSLQPEDVATYYCQQDNNHPYTFGQGTKLEIKRTVAAPSVFIFPPSDEQLKSGTASVVCLLNNFYPREAKVQWKVDNALQSGNSQESVTEQDSKDSTYSLSSTLTLSKADYEKHKVYACEVTHQGLSSPVTKSFNRGEC
notes: as for B4

fold change in KD against the parental chimera [3]: < 3 fold | Kd [1]: 943 pM | Response [1]: 0.389 | koff [1]: 0.000425 s⁻¹ | kon [1]: 450000 M⁻¹ s⁻¹
B8: G8 (antibody, human IgG1, kappa)
heavy: not shown
light: DIQMTQSPSSLSASVGDRVTITCRASQDISNFLNWYQQKPEGTLKLLIYYTSGLHSGVPSRFSGSGSGTDFTLTISSLQPEDVATYYCQQDNNHPYTFGQGTKLEIKRTVAAPSVFIFPPSDEQLKSGTASVVCLLNNFYPREAKVQWKVDNALQSGNSQESVTEQDSKDSTYSLSSTLTLSKADYEKHKVYACEVTHQGLSSPVTKSFNRGEC
notes: as for B4
